This passage reports protein stability index results from the supplement of paper PMC10567573.

± gives the standard deviation.

The nature of this data set: protein stability index of a GFP-peptide fusion (GPS, HEK-293T) (PSI 1-6); higher = more stable.
[1] abbreviates: treatment: DMSO, c terminus: a fixed tail appended.
The mark [2] stands for this setting: treatment: MLN4924 1 uM, 8 h, c terminus: a fixed tail appended.
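Also: 24-mer peptide tiles fused after GFP, lentivirally expressed, FACS-sorted into six equal bins by GFP/DsRed ratio, decoded by Illumina sequencing, PSI is the read-weighted mean bin number.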

In the case of LDQLRFPNGVQLSPAEDFVLVAET [APMAP], the protein stability index under setting [1] stood at 3.09 ± 0.23 and the protein stability index under setting [2] is 3.27 ± 0.23.

Sequence LDSSLASLVGNLGISGTTTKKGDL [SNAP91] yielded a protein stability index under setting [1] of 4.76 ± 0.24 and a protein stability index under setting [2] of 4.73 ± 0.19.

Turning to LDTGTNYDYVREFKRSTGTWHHTK [GAN], the protein stability index was 3.34 ± 0.11 under setting [1] and 3.42 ± 0.25 under setting [2]. As for LEAELLQIEERHQEKKRKFLESTD [SMARCE1], the protein stability index by setting is: under setting [1], 4.89 ± 0.69; under setting [2], 5.04 ± 0.24. Regarding LEEALYEYQPLQIETYGPHVPELE [MNAT1], the protein stability index amounted to 3.25 ± 0.6 under setting [1] and 3.65 ± 0.47 under setting [2]. On to LEENPYDLDAWSILIREAQNQPID [CSTF3], for which the protein stability index is, setting by setting: under setting [1], 3.74 ± 0.32; under setting [2], 3.85 ± 0.31.

For LEEVERAILEMKWKVRAEKEACQR [ZBED2], the protein stability index runs as follows: under setting [1], 3.87 ± 0.18; under setting [2], 3.76 ± 0.21.

LEGEDAHLSSQQASGQSYSSREVF [KRT16] gave a protein stability index under setting [1] of 5.04 ± 0.15 and a protein stability index under setting [2] of 5.02 ± 0.1. In turn, LELDDNLDTERPVQKRARSGPQPR [TRIB3] had a protein stability index under setting [1] of 4.9 ± 0.38 and a protein stability index under setting [2] of 5.11 ± 0.18. The matching figures for LELLGATYVDKKRDLLGALKHWRR [FEM1A]: 2.48 ± 0.11 and 2.62 ± 0.3. The sequence LELSCDKFPPEEELQREWLGNREA [CPN1] returned a protein stability index under setting [1] of 4.95 ± 0.25 and a protein stability index under setting [2] of 5.11 ± 0.16. With LERQLQAEFIESGQYRANEGTSSI [TAF7L], the protein stability index reads like this: under setting [1], 4.7 ± 0.2; under setting [2], 4.66 ± 0.12.

Take LESPIDPQPLSFKEPPLLLGVLHP [APMAP]: the protein stability index worked out at 3.43 ± 0.31 under setting [1] and 3.69 ± 0.24 under setting [2].

Turning to LEVKIHDWYQKQTPTSPECDYSQY [KRT15], the protein stability index stood at 2.81 ± 0.3 under setting [1] and 2.94 ± 0.25 under setting [2]. LGDPPPLLTLPRPPLSGALASITE [HDAC6]: the protein stability index was 4.33 ± 0.38 under setting [1] and 4.41 ± 0.32 under setting [2]. For LGRMGKHEQALFIYVHILKDTRMA [VPS39], in that order: 2.89 ± 0.71 and 2.98 ± 0.78. Regarding LHAQLRDLTSSSSDELSWIIELLE [ELF3], the protein stability index was 2.83 ± 0.22 under setting [1] and 2.99 ± 0.39 under setting [2]. For LHDRGAQVIHPQEFRRWRDTGVAF [DNAAF3], in that order: 2.83 ± 0.2 and 2.99 ± 0.38.

Consider LHRLFREKSLDQLKSISAEEILTL [PHTF1], for which the protein stability index under setting [1] turned out to be 2.11 ± 0.45 and the protein stability index under setting [2] is 2.25 ± 0.47. Sequence LIALLTWGYIRYSGQYRELGGAID [ATL3] displayed a protein stability index under setting [1] of 3.4 ± 0.13 and a protein stability index under setting [2] of 3.52 ± 0.17. As to LIPVPMATQIQQLLQDKQFELALQ [VPS39], the protein stability index is 2.31 ± 0.12 under setting [1] and 2.69 ± 0.29 under setting [2].

LKEGVRLDRVRGGRQKYKRRPEVD [ESRRA]: the protein stability index under setting [1] turned out to be 4.19 ± 0.29 and the protein stability index under setting [2] was 4.43 ± 0.19. Sequence LKKDKKKEEKEDEISLEDLIERER [ZC3H15] returned a protein stability index under setting [1] of 5.47 ± 0.41 and a protein stability index under setting [2] of 5.51 ± 0.13. As to LKLARKAYHDPMLKLSIMSEEELT [NET1], the protein stability index was found to be 3.06 ± 0.2 under setting [1] and 3.14 ± 0.21 under setting [2].

With LKLYEQWKNFDERKEMATILSKMP [CCNC], the protein stability index is 2.61 ± 0.59 under setting [1] and 2.62 ± 0.41 under setting [2]. With LKPEKSYSFVLTNRGNSAGGLQHR [PTPRD], the protein stability index runs as follows: under setting [1], 3.08 ± 0.53; under setting [2], 3.27 ± 0.23.

In the case of LLEATGGAAGRSHHLDEDEERERI [KCTD10], the protein stability index worked out at 5.25 ± 0.25 under setting [1] and 5.41 ± 0.35 under setting [2].

For LLGFLRIRVRGQRASRLQAPVLVA [LPCAT4], the protein stability index stood at 2.37 ± 0.52 under setting [1] and 2.12 ± 0.29 under setting [2].

Turning to LLLILVSYVHILSAILQFPSTLGR [OR10K2], the protein stability index turned out to be 2.98 ± 0.16 under setting [1] and 3.33 ± 0.35 under setting [2]. With LLLPGIYTVSATAPGYDPETVTVT [CPN1], the protein stability index by setting is: under setting [1], 2.16 ± 0.22; under setting [2], 2.17 ± 0.31. For LPLPPPPPEPLSQVSMWDQRWQDH [APBB1IP], in that order: 3.19 ± 0.78 and 3.54 ± 0.57. On to LQDGNLRAPHKESTLPRSGSSGGQ [CHCHD6], for which the protein stability index is, setting by setting: under setting [1], 5.03 ± 0.12; under setting [2], 4.95 ± 0.31.

As to LQMEVCRLKKEEEDRIVTQNRVFA [CEP70], the protein stability index was found to be 3.98 ± 0.31 under setting [1] and 4.01 ± 0.055 under setting [2]. In turn, LRLADEFGVAVVITNQVVAQVDGA [RAD51] gave a protein stability index under setting [1] of 2.31 ± 0.52 and a protein stability index under setting [2] of 2.1 ± 0.39. For the sequence LRLSCMERKKVQIRSMDPSALASD [DCAF4], the protein stability index worked out at 2.99 ± 0.31 under setting [1] and 3.48 ± 0.3 under setting [2].

In the case of LRPTLLLTSLHHFMHSRNLYILGN [PNLIPRP1], the protein stability index is 3.08 ± 0.31 under setting [1] and 3.13 ± 0.81 under setting [2]. LRQEMVNLRATDVRLMRQLLVINE [LURAP1L] yielded a protein stability index under setting [1] of 2.35 ± 0.081 and a protein stability index under setting [2] of 2.48 ± 0.34. Turning to LRQLGCKDGKNWNSNQATDIMETS [SPOPL], the protein stability index by setting is: under setting [1], 4.25 ± 0.24; under setting [2], 4.28 ± 0.1. Regarding LRTSNGQPVKTAGEITQHNVTELL [DNAAF3], the protein stability index was determined as 4.14 ± 0.23 under setting [1] and 4.33 ± 0.17 under setting [2]. LRVISDEGGWWKAISLSTGRESYI [SLA] showed a protein stability index under setting [2] of 1.88 ± 0.22. Regarding LSAALASSQKQHSFTSSDKTIKSF [C8orf76], the protein stability index reads like this: under setting [1], 3.77 ± 0.35; under setting [2], 3.74 ± 0.2. As for LSAVPEEGDATRDPGPEPEEEPGV [PSD2], the protein stability index under setting [1] came to 5.77 ± 0.25 and the protein stability index under setting [2] is 5.48 ± 0.49. For LSEEERSEKAMLRSRIEEQSQLIC [CCDC89], in that order: 4.53 ± 0.3 and 4.62 ± 0.11.

In turn, LSKSRTDYQPTQAGRLMRPSVKYL [RNF180] came in with a protein stability index under setting [1] of 3.19 ± 0.25 and a protein stability index under setting [2] of 3.11 ± 0.49. In the case of LSLESEGAGEGAAASPELSALEEA [TPPP], the protein stability index stood at 5.52 ± 0.17 under setting [1] and 5.58 ± 0.17 under setting [2]. Regarding LSLTGVSLAGALGVKFVGLFIILQ [POMT2], the protein stability index under setting [1] came out at 3.05 ± 1.1 and the protein stability index under setting [2] is 2.39 ± 1.1.

In the case of LSRDTVQESYENVDSLESHIPSQE [ZNF263], the protein stability index runs as follows: under setting [1], 5.26 ± 0.13; under setting [2], 5.41 ± 0.13.

LSRENIQSSLLETLYRNRSNLETI [PPEF2]: the protein stability index runs as follows: under setting [1], 2.83 ± 0.39; under setting [2], 2.64 ± 0.33. The matching figures for LSVEADINGLRRVLDELTLARADL [KRT17]: 2.66 ± 0.26 and 3.04 ± 0.43. With LSWFILHARYRVIHFIAVAVCLLG [SLC35F2], the protein stability index is, setting by setting: under setting [1], 2.49 ± 0.12; under setting [2], 2.83 ± 0.91.

Turning to LTEAEGWHFFCFQGEATRKLAGK [SAT2], the protein stability index reads like this: (treatment: DMSO, c terminus: native) 2.69 ± 0.29; (treatment: MLN4924 1 uM, 8 h, c terminus: native) 3.02 ± 0.49. As to LTEIYRIVSQKQMSDRRENDMSPS [RAB11A], the protein stability index reads like this: under setting [1], 3.54 ± 0.2; under setting [2], 3.81 ± 0.12. For LTHFSRRYCQCNPDDSTSEDGIHT [PSD2], the protein stability index is 3.6 ± 0.27 under setting [1] and 3.77 ± 0.3 under setting [2]. As for LTLSGIKEDNSLLNQGFLQAKPEK [MYBL2], the protein stability index reads like this: under setting [1], 4.53 ± 0.39; under setting [2], 4.61 ± 0.099. For LTYACENGHTDVADVLLQAGADLE [ANKRD17], in that order: 4.3 ± 0.16 and 4.68 ± 0.35. As to LVADLLYWKDTRTSGVVFTGLMVS [RTN2], the protein stability index is 3.17 ± 0.46 under setting [1] and 3.03 ± 0.4 under setting [2]. For LVELPASFRELLTFFCTNATIHGA [SCNN1D], the protein stability index came to 2.79 ± 0.38 under setting [1] and 2.63 ± 0.49 under setting [2]. Consider LVETAIQSLDEPGGATFLLTAKQL [TRIM63], for which the protein stability index came to 2.75 ± 0.14 under setting [1] and 2.66 ± 0.45 under setting [2]. On to LVMASLYHIYVALEEEIERNKESP [HMOX1], for which the protein stability index amounted to 2.27 ± 0.19 under setting [1] and 2.22 ± 0.44 under setting [2]. The matching figures for LVPALRLPGRKLVSSAVSPSIIPQ [INTS4]: 2.48 ± 0.31 and 2.46 ± 0.26. For the sequence LVSIRNNRNLQKFSLFGDISVLQQ [FBXO33], the protein stability index by setting is: under setting [1], 2.17 ± 0.14; under setting [2], 2.09 ± 0.29. The matching figures for LVSPSNNSKEDAFSGTDWMLEKMD [ATF4]: 4.66 ± 0.26 and 4.64 ± 0.23. Turning to LVWLVRELVKSGVLGADGVCMTFM [INTS3], the protein stability index under setting [1] turned out to be 2.17 ± 0.54 and the protein stability index under setting [2] was found to be 2.22 ± 0.84. As to MAAEIQPKPLTRKPILLQRMEGSQ [WDFY2], the protein stability index under setting [1] was 4.05 ± 0.27 and the protein stability index under setting [2] was 3.8 ± 0.38. MAETVADTRRLITKPQNLNDAYGP [SNX3]: the protein stability index reads like this: under setting [1], 3.95 ± 0.25; under setting [2], 4.17 ± 0.15. For MANQEAAIQAFLDKCSAPKIWRTP [IQUB], in that order: 3.11 ± 0.14 and 3.16 ± 0.34.

As to MATITCTRFTEEYQLFEELGKGAF [CAMK2A], the protein stability index runs as follows: under setting [1], 2.35 ± 0.23; under setting [2], 2.44 ± 0.4. The matching figures for MAVAQQLRAESDFEQLPDDVAISA [NCF4]: 4.89 ± 0.27 and 4.88 ± 0.19. Turning to MCSTLEHNCAHFCINIPGSYVCRC [MATN2], the protein stability index reads like this: under setting [1], 3.18 ± 0.33; under setting [2], 3.19 ± 0.44.

In the case of MCYRVRWEEAAPGRAVEHAMFLGD [MYORG], the protein stability index under setting [1] came to 2.27 ± 0.18 and the protein stability index under setting [2] is 2.34 ± 0.47.

In turn, MEGDGGTPWALALLRTFDAGEFTG [RIPK4] showed a protein stability index under setting [1] of 2.11 ± 0.16. Consider MELGGHWDMNSAPRLVSETAERKQ [MFSD9], for which the protein stability index runs as follows: under setting [1], 4.98 ± 0.11; under setting [2], 4.98 ± 0.2. The matching figures for MELGPEPPHRRRLLFACSPPPASQ [CDC25A]: 3.57 ± 0.2 and 3.47 ± 0.17.
